“And” between values parts separate entries of the source, which are not always exact repeats. Identical values can stand only once.
Legend:
[1] = target: T1, His6-tagged human DISC1 C-region (residues 691-836) (human), Q9NRI5; assay: dynamic light scattering; critical concentration of C-region monomers/oligomers in equilibrium with the fibril suspension, taken as the detection limit of the instrument; 1D crystallization model (KF = 1/[C]); settings: remark: other sources report otherwise
T1 chain: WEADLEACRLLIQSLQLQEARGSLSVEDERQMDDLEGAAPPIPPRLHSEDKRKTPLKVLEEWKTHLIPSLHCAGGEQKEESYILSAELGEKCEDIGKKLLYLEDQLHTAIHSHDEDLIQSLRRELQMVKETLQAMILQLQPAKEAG

[2] = target: T1, His6-tagged human DISC1 C-region …; assay: ITC; no titration: heat flow of the spontaneous association of the protein solution monitored in the cell (iTC-200, 300 rpm); 10-50 µM at 37 °C, 10 µM at 20-60 °C; dH from the peak area normalised to the protein amount; settings: remark: other sources report otherwise
[3] = target: T1, His6-tagged human DISC1 C-region …; assay: dynamic light scattering; His6-C-region, 10-90 µM at 37 °C; samples centrifuged at 21,000 x g before measurement; settings: remark: other sources report otherwise
[4] = target: T1, His6-tagged human DISC1 C-region …; assay: negative-stain transmission electron microscopy; 10 µM protein on carbon-coated copper grids, 1% uranyl acetate; 2D classification and 3D reconstruction (RELION); settings: remark: other sources report otherwise
lissencephaly 1 (LIS1) [5] = target: T2, lissencephaly 1 (LIS1) (UniProt P43034 1-410); assay: SPR; freshly prepared MBP-C-region (representing the monomer) amine-coupled to a CM5 chip (250 RU); analytes 0.75-10 µM without regeneration; 25 °C, PBS pH 7.4 (20 mM Na-phosphate, 150 mM NaCl); equilibrium responses fitted with Hill's equation; settings: both partners purified
T2 construct: lissencephaly 1 (LIS1); source: E. coli C43 (DE3), purified (Ni2+-NTA, Superdex 200 SEC)
T2 sequence (looked up): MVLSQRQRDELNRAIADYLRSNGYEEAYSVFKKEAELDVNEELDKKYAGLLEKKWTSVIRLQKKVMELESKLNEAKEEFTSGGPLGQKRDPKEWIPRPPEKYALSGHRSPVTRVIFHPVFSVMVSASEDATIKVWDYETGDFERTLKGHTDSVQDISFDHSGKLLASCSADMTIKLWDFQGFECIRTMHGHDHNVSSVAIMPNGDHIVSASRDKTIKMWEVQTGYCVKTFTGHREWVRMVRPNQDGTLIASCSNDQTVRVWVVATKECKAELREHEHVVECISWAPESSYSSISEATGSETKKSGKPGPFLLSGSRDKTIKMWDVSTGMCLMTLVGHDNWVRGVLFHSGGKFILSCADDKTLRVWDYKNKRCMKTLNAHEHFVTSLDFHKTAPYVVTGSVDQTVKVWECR

NDE-like 1 (NDEL1) [6] = target: T3, NDE-like 1 (NDEL1) (UniProt Q9GZM8 1-345); assay: as above; settings: both partners purified
lissencephaly 1 (LIS1) [7] = target: T2, lissencephaly 1 (LIS1); assay: SPR; oligomeric/fibrillar C-region (His-C-region incubated at 4 °C for two weeks, MBP-C-region for two months) amine-coupled to a CM5 chip (250 RU); analytes 0.75-10 µM without regeneration; 25 °C, PBS pH 7.4; equilibrium responses fitted with Hill's equation; apparent affinities; settings: both partners purified
NDE-like 1 (NDEL1) [8] = target: T3, NDE-like 1 (NDEL1); assay: as above; settings: both partners purified
NDE-like 1 (NDEL1) [9] = target: T3, NDE-like 1 (NDEL1); assay: SPR; freshly prepared MBP-C-region (representing the monomer) amine-coupled to a CM5 chip (250 RU); analytes 0.75-10 µM without regeneration; 25 °C, PBS pH 7.4 (20 mM Na-phosphate, 150 mM NaCl); equilibrium responses fitted with Hill's equation; settings: both partners purified; remark: listed apart in the source
[10] = target: T4, MBP-His6-fused human DISC1 C-region (residues 691-836) (human), Q9NRI5; assay: dynamic light scattering; MBP-tagged C-region in solution at different temperatures (Fig. S1); settings: remark: other sources report otherwise
T4 chain: T1 chain

T3 sequence (Q9GZM8 whole entry): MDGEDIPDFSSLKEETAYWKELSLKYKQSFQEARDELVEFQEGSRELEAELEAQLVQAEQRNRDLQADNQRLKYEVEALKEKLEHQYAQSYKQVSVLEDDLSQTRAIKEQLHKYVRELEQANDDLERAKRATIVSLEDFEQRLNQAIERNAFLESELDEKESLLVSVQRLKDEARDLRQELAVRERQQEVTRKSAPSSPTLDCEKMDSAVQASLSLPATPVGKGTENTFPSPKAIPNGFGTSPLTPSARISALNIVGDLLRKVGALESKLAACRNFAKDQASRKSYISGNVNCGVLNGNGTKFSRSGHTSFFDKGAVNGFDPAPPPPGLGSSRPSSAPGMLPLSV

B1: His6-tagged human DISC1 C-region (residues 691-836), Q9NRI5 691-836 (domain or fragment)
chain: T1 chain
Question: Which results are given for B1?
Answer: critical concentration (1/KF of fibril formation) [1]: 750 nM; dH [2]: -71.2 kcal/mol; stoichiometry N [3]: 4; stoichiometry N [4]: 4 and 5 and 6

B2: MBP-His6-fused human DISC1 C-region (residues 691-836) (domain or fragment, UniProt Q9NRI5 691-836, looked up)
chain: T1 chain
notes: disrupted in schizophrenia 1 (DISC1), human, C-region, residues 691-836 of full-length human DISC1; Cloned in pET-15b; Used freshly prepared to represent the monomer, and after two months at 4 °C as oligomer/fibril, in SPR; also called MBP-C-region; MBP-C region; source: E. coli (DE3) C43, purified (Co2+-NTA, amylose column); not shown: MBP, N-terminal, kept; His6, N-terminal, kept
Question: For B2, which Kd (lissencephaly 1 (LIS1) [5]) is on record?
Answer: 0.071 µM

Question: And the Kd (NDE-like 1 (NDEL1) [6])?
Answer: 20 µM

Question: And the Kd (lissencephaly 1 (LIS1) [7])?
Answer: 0.031 µM

Question: What about the Kd (NDE-like 1 (NDEL1) [8]) of the same binder?
Answer: 14 µM

Question: What about the Kd (NDE-like 1 (NDEL1) [9]) of the same binder?
Answer: 28 µM

B3: MBP-His6-fused human DISC1 C-region (residues 691-836), Q9NRI5 691-836 (domain or fragment)
chain: T1 chain
Question: How did the stoichiometry N [10] turn out when B3 was run?
Answer: 4

B4: His6-tagged human DISC1 C-region (residues 691-836) (domain or fragment, UniProt Q9NRI5 691-836, looked up)
chain: T1 chain
notes: disrupted in schizophrenia 1 (DISC1), human, C-region, residues 691-836 of full-length human DISC1; Vector pESPRIT002; Theoretical mass of the tagged protein 19.4 kDa; for SPR it was incubated at 4 °C for two weeks (oligomer/fibril); also called His6-C-region; His-C-region; source: E. coli BL21 (DE3) pLysE T1R, purified (Co2+-NTA, Superdex 200 SEC); not shown: His6, N-terminal, kept
Question: For B4, which Kd (lissencephaly 1 (LIS1) [7]) is on record?
Answer: 0.031 µM

Question: What about the Kd (NDE-like 1 (NDEL1) [8]) of the same binder?
Answer: 13 µM

— article PMC8683410 (Translational Psychiatry, 2021)
